B1: Mycobacterium tuberculosis DnaK T175A (catalytically dead mutant), full-length (natural protein)
chain: not shown
B2: Mycobacterium tuberculosis GrpE (natural protein)
chain: MTDGNQKPDGNSGEQVTVTDKRRIDPETGEVRHVPPGDMPGGTAAADAAHTEDKVAELTADLQRVQADFANYRKRALRDQQAAADRAKASVVSQLLGVLDDLERARKHGDLESGPLKSVADKLDSALTGLGLVAFGAEGEDFDPVLHEAVQHEGDGGQGSKPVIGTVMRQGYQLGEQVLRHALVGVVDTVVVDAAELESVDDGTAVADTAENDQADQGNSADTSGEQAESEPSGS

Legend:
native gel or EMSA = biological target: the molecule itself; test: native gel or EMSA
[1] = biological target: B1; test: native gel or EMSA

Binder: B1
- binding result (native gel or EMSA): binds

Binder: B2
- binding result [1]: binds

— PMC9124243 (Cell chemical biology, 2021)
